Measurements: the supplement of paper PMC9732359
± gives the uncertainty stated by the source.

Test: protein stability index of a GFP-peptide fusion (yeast GPS) (PSI 1-4); higher = more stable; sorted into four equal gates, so the index is relative within each strain
How it was run: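 For each peptide, the protein stability index sums the read frequency in every gate after multiplying it by the gate number. Read frequencies came from plasmids that were PCR-amplified from each gate and Illumina-sequenced, with reads assigned to strains by barcodes. The gates were four equal bins of GFP/Cherry fluorescence ratio applied to mid-log yeast in leucine-free medium carrying a pooled library of tiled 17-residue yeast protein peptides fused downstream of GFP on a Cherry-expressing plasmid.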

Sequence | protein stability index (doa10∆) | protein stability index (pdr5∆) | protein stability index (san1∆) | protein stability index (ubr1∆)
DTYRTLMEEIESLKKEL [YIL149C/MLP2] | 3.16 ± 0.1 | 3.36 ± 0.092 | 3.4 ± 0.07 | 3.35 ± 0.068
DVIAWKNVLANSIWGSS [ITC1] | 2.83 ± 0.14 | 2.95 ± 0.088 | 3.49 ± 0.12 | 3.28 ± 0.072
DVKTAEEASQLIEYMEN [NUT1] | 2.91 ± 0.086 | 3.04 ± 0.099 | 3.05 ± 0.08 | 3.1 ± 0.064
DVMDELITSSARKELPI [SIR3] | – | 2.26 ± 0.13 | 2.7 ± 0.27 | 2.42 ± 0.18
DVQVDAEEKREAVIDEK [ITC1] | – | 2.32 ± 0.18 | – | 2.6 ± 0.13
DVRRLKKNVWRSINNLI [BRN1] | 2.62 ± 0.29 | 1.9 ± 0.11 | 1.06 ± 0.15 | 1.1 ± 0.063
DVTPADDLKQKKEELVE [RPO31] | 3.12 ± 0.16 | 3.25 ± 0.093 | 3.08 ± 0.15 | 3.24 ± 0.12
DWFTYSYFYRRIHVNPS [BRR2] | 1.86 ± 0.047 | 1.28 ± 0.038 | 1.53 ± 0.057 | 1.52 ± 0.029
DYMYENGKLTSANERLF [YML031W/NDC1] | 3.37 ± 0.17 | 3.28 ± 0.11 | 3.1 ± 0.11 | 3.23 ± 0.095
DYPSTSLDIRHDFIKGL [NUT1] | 2.9 ± 0.14 | 2.88 ± 0.076 | 3.14 ± 0.057 | 2.56 ± 0.062
DYRPAEETEAQAEPVEA [RPS3] | 2.93 ± 0.075 | 3.26 ± 0.065 | 3.14 ± 0.038 | 3.17 ± 0.052
DYSKPNLPPHYALFLKA [SSN2] | 2.15 ± 0.07 | 2.03 ± 0.073 | 1.78 ± 0.11 | 1.99 ± 0.056
DYYYEDAGSNQYYVTQH [SWI1] | 3.15 ± 0.1 | 3.34 ± 0.082 | 3.09 ± 0.14 | 3.22 ± 0.095
EAESLLQFHVATYMDND [RPO21] | 2.82 ± 0.1 | 2.7 ± 0.13 | 2.7 ± 0.073 | 2.94 ± 0.15
EAINGFKDETISKKIIG [SIR3] | 3.08 ± 0.065 | 3.19 ± 0.057 | 2.95 ± 0.082 | 3.09 ± 0.063
EALQYDPQPFLKHVLQL [SNU114] | 2.17 ± 0.04 | 2.53 ± 0.047 | 2.35 ± 0.075 | 2.65 ± 0.038
EAMYKLQLASLQQKQRD [SMC3] | 2.71 ± 0.091 | 2.76 ± 0.078 | 2.52 ± 0.087 | 2.54 ± 0.063
EAQDEASLQQQQQQDLQ [SNF6] | 3.27 ± 0.14 | 3.15 ± 0.1 | 3.12 ± 0.073 | 3.2 ± 0.18
EARFWHLVELLLVFRNA [YDL116W/NUP84] | 2.69 ± 0.079 | 2.1 ± 0.065 | 2.06 ± 0.085 | 2.02 ± 0.064
EATSNTNSEDKLSKVQL [MED4] | 2.82 ± 0.13 | 2.92 ± 0.071 | 2.77 ± 0.087 | 2.93 ± 0.075
EAVEIPVNSADGKEDVE [SME1] | 2.29 ± 0.061 | 2.8 ± 0.056 | 2.77 ± 0.04 | 2.67 ± 0.04
ECGTGTTIHTFNRKENP [RPN14] | 2.11 ± 0.18 | 2.5 ± 0.1 | 2.21 ± 0.12 | 2.05 ± 0.13
ECSKDMKEDGLSFVDIV [SIR4] | 2.75 ± 0.17 | 3.39 ± 0.1 | 3.1 ± 0.088 | 3.03 ± 0.065
EDDESLGHKELKVRKGH [RPB2] | 2.29 ± 0.071 | 2.54 ± 0.067 | 2.45 ± 0.076 | 2.97 ± 0.049
EDDNTPAGHAGNPTNIS [YDL088C/ASM4] | 2.87 ± 0.076 | 2.88 ± 0.063 | 2.91 ± 0.052 | 3.1 ± 0.046
EDDSSNSCFSDGSQQNL [REC8] | 3.7 ± 0.22 | – | 3.65 ± 0.12 | 3.32 ± 0.1
EDDTQIVTGNLVLDLLT [IRR1] | 2.12 ± 0.055 | 2.83 ± 0.047 | 2.26 ± 0.085 | 2.26 ± 0.037

Sequence | protein stability index (doa10∆) | protein stability index (pdr5∆) | protein stability index (san1∆) | protein stability index (ubr1∆)
EDEDEDLFGDSNKSNST [SSN2] | 2.69 ± 0.05 | 2.82 ± 0.061 | 2.86 ± 0.079 | 2.18 ± 0.032
EDEFIVQHDQILVMETS [SWP82] | 2.95 ± 0.069 | 2.54 ± 0.063 | 2.33 ± 0.082 | 2.98 ± 0.048
EDFPIDTWANGETIKSN [SEM1] | 3.55 ± 0.14 | 3.61 ± 0.19 | 3.13 ± 0.2 | 3.15 ± 0.15
EDILYYSTCPSETDLND [SRB8] | 2.29 ± 0.12 | 1.56 ± 0.099 | 2.14 ± 0.11 | 1.92 ± 0.1
EDLFETISQALLNAADR [PUP3] | 2.81 ± 0.12 | 2.01 ± 0.089 | 1.89 ± 0.16 | 1.92 ± 0.067
EDPKRRADTMDFKTDVD [YJL039C/NUP192] | 3.29 ± 0.1 | 3.51 ± 0.086 | 3.4 ± 0.096 | 3.24 ± 0.1
EDSSILQSIVNEISRNG [PCI8] | 3.13 ± 0.13 | 2.96 ± 0.1 | 3 ± 0.054 | 3.41 ± 0.09
EDTLSGYDPIVSTRAID [PRP28] | 2.51 ± 0.2 | 2.67 ± 0.12 | 3.13 ± 0.15 | 3.16 ± 0.093
EDTNTKPLFDFGKTGDQ [YOR098C/NUP1] | 1.86 ± 0.25 | – | – | –
EDVALNEQVKKFFLNNV [NAS6] | 2.64 ± 0.047 | 2.5 ± 0.058 | 2.44 ± 0.051 | 2.88 ± 0.042
EDVDDEELDITPLFPID [IRR1] | 2.99 ± 0.19 | 3.36 ± 0.15 | 3 ± 0.1 | 2.95 ± 0.075
EDYPMSSEIKIYYNELQ [SIR4] | 1.95 ± 0.13 | 3.16 ± 0.13 | 2.53 ± 0.25 | 3.02 ± 0.079
EEAKEEVTEEQAEATEW [RPS0A] | 3.48 ± 0.12 | 3.49 ± 0.1 | 3.02 ± 0.13 | 3.64 ± 0.091
EEASQLIEYMENDAKKS [NUT1] | 2.95 ± 0.081 | 3.2 ± 0.067 | 3.15 ± 0.061 | 3.04 ± 0.048
EEDDEGELEQAQAWINL [RPN7] | 3.58 ± 0.28 | 3.23 ± 0.11 | 3.43 ± 0.11 | 3.26 ± 0.058
EEDISDLWNNFGNIMDN [RRP6] | 3.13 ± 0.078 | 2.98 ± 0.071 | 3.02 ± 0.052 | 3.02 ± 0.1
EEGETSRPLKKVKILEQ [SWI3] | 3.01 ± 0.11 | 3.28 ± 0.092 | 2.86 ± 0.08 | 3.03 ± 0.053
EEGINKFKKEKFDIIIV [SRP54] | 2.58 ± 0.05 | 2.61 ± 0.042 | 2.92 ± 0.043 | 2.69 ± 0.057
EEKEESNLAATKSMVKI [RPN11] | 3.43 ± 0.12 | 3.41 ± 0.11 | 3.34 ± 0.059 | 3.35 ± 0.098
EEKPGLIITRKAFKNNS [SMC4] | 2.89 ± 0.086 | 2.88 ± 0.097 | 2.82 ± 0.064 | 2.94 ± 0.079
EELLAQYESQAPDGSAS [SWP82] | 3.02 ± 0.061 | 2.95 ± 0.084 | 3.13 ± 0.068 | 3.08 ± 0.046
EELLQLFLNNFVSRIPI [IRR1] | 3.12 ± 0.058 | 2.74 ± 0.055 | 2.75 ± 0.054 | 2.7 ± 0.041
EELRKHAQKRVSNASAR [SKI6] | 3.25 ± 0.23 | 3.22 ± 0.095 | 3.01 ± 0.11 | 2.89 ± 0.073
EENGDSIKEHSTTMDGA [MED1] | 3.32 ± 0.19 | – | 3.21 ± 0.14 | 3.57 ± 0.14
EENSSSNGNNLPLNKPR [RGR1] | 3.24 ± 0.044 | 3.29 ± 0.044 | 3.2 ± 0.041 | 3.26 ± 0.045
EEQRSDTKNSKSESPSE [ISW2] | – | 3.21 ± 0.23 | – | –
